Biological target: T1, wild-type human moesin (Moesin-WT) (human, UniProt P26038 2-577, pulled down with the anti-p-ERM antibody, i.e. the form with phosphorylated C-terminal threonine (Thr558 for moesin, as the filing names the site in paragraph 193))
T1 construct: also called pCDNA3-Moesin WT; wild type moesin
Assay: anti-p-ERM IP and Western blot, transfected H522 cells
Excerpt: Both plasmids produce high levels of moesin proteins in the transfected cells (FIG. 5d).
Because p-ERM functions primarily through binding to F-actin and EBP50 (ERM-binding phosphoprotein 50) through their C-ERMAD and TERM domain (Fouassier, L., Yun, C. C., Fitz, J. G.& Doctor, R. B. Evidence for ezrin-radixin-moesin-binding phosphoprotein 50 (EBP50) self-association through PDZ-PDZ interactions. J Biol Chem. 275, 25039-25045 (2000); Turunen, O., Wahlström, T. & Vaheri, A. Ezrin has a COOH-terminal actin-binding site that is conserved in the ezrin protein family. J Cell Biol. 126, 1445-1453 (1994); Bretscher, A. et al. ERM-Merlin and EBP50 protein families in plasma membrane organization and function.

T1 sequence (P26038 2-577 limits assumed): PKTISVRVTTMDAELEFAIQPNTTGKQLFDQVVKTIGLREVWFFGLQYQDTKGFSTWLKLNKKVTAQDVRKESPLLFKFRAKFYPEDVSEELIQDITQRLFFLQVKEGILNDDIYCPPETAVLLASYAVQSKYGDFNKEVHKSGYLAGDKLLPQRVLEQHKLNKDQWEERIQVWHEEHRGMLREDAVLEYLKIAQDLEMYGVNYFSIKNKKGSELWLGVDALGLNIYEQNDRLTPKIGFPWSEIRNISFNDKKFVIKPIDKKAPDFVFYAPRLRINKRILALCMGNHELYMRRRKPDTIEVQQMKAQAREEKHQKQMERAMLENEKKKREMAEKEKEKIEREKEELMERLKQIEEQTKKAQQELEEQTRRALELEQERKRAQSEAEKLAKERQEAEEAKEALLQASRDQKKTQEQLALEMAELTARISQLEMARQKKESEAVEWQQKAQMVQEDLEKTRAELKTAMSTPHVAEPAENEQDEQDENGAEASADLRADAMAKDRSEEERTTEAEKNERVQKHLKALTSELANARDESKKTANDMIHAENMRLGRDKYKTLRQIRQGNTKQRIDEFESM

binding result: binds
B1: ERM-binding phosphoprotein 50 (EBP50) (other, UniProt O14745 2-358, looked up)
chain: SADAAAGAPLPRLCCLEKGPNGYGFHLHGEKGKLGQYIRLVEPGSPAEKAGLLAGDRLVEVNGENVEKETHQQVVSRIRAALNAVRLLVVDPETDEQLQKLGVQVREELLRAQEAPGQAEPPAAAEVQGAGNENEPREADKSHPEQRELRPRLCTMKKGPSGYGFNLHSDKSKPGQFIRSVDPDSPAEASGLRAQDRIVEVNGVCMEGKQHGDVVSAIRAGGDETKLLVVDRETDEFFKKCRVIPSQEHLNGPLPVPFTNGEIQKENSREALAEAALESPRPALVRSASSDTSEELNSQDSPPKQDSTAPSSTSSSDPILDFNISLAMAKERAHQKRSSKRAPQMDWSKKNELFSNL
notes: Endogenous protein detected by Western blot (anti-EBP50, Clone 6/EBP50) in anti-p-ERM IP products

Source: patent US20180273941A1 (UNIVERSITY OF MARYLAND BALTIMORE, published 2018)
